Test results as given in patent US20130072665A1 (Amgen, published 2013).
Substitutions are numbered along the chain they refer to. Like-named read-outs stand apart in the source and are kept apart here. Blank lines part the entries; values can stand above or below the binder they belong to.

Columns and labels:
[1] = biological target: T1, 31H4, anti-PCSK9 huIgG4; test: KinExA solution equilibrium, % free 31H4.1 (100 pM) against [mPCSK9]
T1 construct: from hybridoma

[2] = biological target: T2, 16F12, anti-PCSK9 huIgG4; test: KinExA solution equilibrium, % free 16F12 (100 pM) against [mPCSK9]
T2 construct: from hybridoma; also called 16F12 IgG4; 16F12.1

[3] = biological target: T3, PCSK9 V domain (450-692 of SEQ ID NO: 3) (human, UniProt Q8NBP7 450-692); test: domain binding ELISA (coated antibody captures the PCSK9 form; OD650)
T3 construct: also called v-domain PCSK9
T3 chain: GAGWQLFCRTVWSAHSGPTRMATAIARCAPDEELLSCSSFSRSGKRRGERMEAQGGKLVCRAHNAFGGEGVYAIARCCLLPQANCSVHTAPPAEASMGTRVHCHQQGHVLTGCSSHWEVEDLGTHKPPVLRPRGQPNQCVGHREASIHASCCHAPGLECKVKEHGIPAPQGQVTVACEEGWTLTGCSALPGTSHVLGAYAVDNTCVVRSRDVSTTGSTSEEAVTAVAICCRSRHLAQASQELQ

[4] = biological target: T4, PCSK9 ProCat (31-449 of SEQ ID NO: 3) (human, UniProt Q8NBP7 27-449); test: as above
T4 construct: From PCSK9 449TEV after rTEV cleavage: GAMG-PCSK9 (31-449)-ENLYFQ; Written as one chain; autocatalysis between 152 and 153 splits pro-domain and catalytic domain; also called procat PCSK9; PCSK9 31-449

[5] = biological target: T3, PCSK9 V domain (450-692 of SEQ ID NO: 3); test: native PAGE gel shift
[6] = biological target: T5, human PCSK9 (proprotein convertase subtilisin kexin type 9) (human, UniProt Q8NBP7 31-692); test: BIAcore kinetic assay 2, antibody captured, pH 7.4
T5 construct: Used untagged, biotinylated, V5/His- or His-tagged depending on the assay; also called hPCSK9; huPCSK9

[7] = biological target: T5, human PCSK9 (proprotein convertase …); test: BIAcore kinetic assay 2, antibody captured, pH 5.5
[8] = biological target: T5, human PCSK9 (proprotein convertase …); test: BIAcore kinetic assay 2, antibody captured, pH 6.0
[9] = biological target: T5, human PCSK9 (proprotein convertase …); test: BIAcore kinetic assay 2
[10] = biological target: T3, PCSK9 V domain (450-692 of SEQ ID NO: 3); test: domain binding ELISA (coated antibody captures the PCSK9 form; OD650)
[11] = biological target: T4, PCSK9 ProCat (31-449 of SEQ ID NO: 3); test: as above; remark: listed apart in the source
[12] = biological target: T5, human PCSK9 (proprotein convertase …); test: BIAcore solution equilibrium, pH 5.5
[13] = biological target: T5, human PCSK9 (proprotein convertase …); test: BIAcore kinetic assay 1, His-tagged huPCSK9 captured, pH 7.4
[14] = biological target: T5, human PCSK9 (proprotein convertase …); test: BIAcore solution equilibrium, pH 6.0
[15] = biological target: T5, human PCSK9 (proprotein convertase …); test: BIAcore solution equilibrium, pH 7.4
[16] = biological target: T5, human PCSK9 (proprotein convertase …); test: BIAcore kinetic assay 1, His-tagged huPCSK9 captured, pH 6.0
[17] = biological target: T5, human PCSK9 (proprotein convertase …); test: BIAcore kinetic assay 1, His-tagged huPCSK9 captured, pH 5.5

T2 sequence (VH, as listed by the source, chain 1 of 2): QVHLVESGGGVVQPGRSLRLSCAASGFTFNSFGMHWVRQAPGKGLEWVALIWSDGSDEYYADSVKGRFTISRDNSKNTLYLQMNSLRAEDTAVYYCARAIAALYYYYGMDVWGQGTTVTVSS
T2 sequence (V domain, as listed by the source, chain 2 of 2): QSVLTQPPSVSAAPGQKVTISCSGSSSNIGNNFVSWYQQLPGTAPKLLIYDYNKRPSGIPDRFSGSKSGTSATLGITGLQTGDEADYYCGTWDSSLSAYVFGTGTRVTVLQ

binding result [3]: no binding
binding result [4]: binds
B5: 27E7 (antibody, V domains shown)
VH: QVQLVQSGAEVKKPGASLKVSCKASGYSLTSYGISWVRQAPGQGLEWMGWISAYNGNTNYAQKVQGRVTMTTDTSTSTVYMEVRSLRSDDTAVYYCARGYGMDVWGQGTTVTVSS
VL: QSALTQPASVSGSPGQSITISCTGTSSDVGGYNSVSWYQQHPGKPPKLMIYEVSNRPSGVSNRFSGSKSGNTASLTISGLQAEDEADYFCSSYTSTSMVFGGGTKLTVL

binding result [3]: no binding
binding result [4]: binds
B6: 27H5 (antibody, V domains shown)
VH: B5 VH with K13R, L18V, S28T, A53V, V83L, R87S
VL: B5 VL with N62I

binding result [3]: no binding
binding result [4]: binds
B9: 13H1 (antibody, V domains shown)
VH: QVQLQQSGPGLVKPSQTLSLTCAISGDSVSSNSAAWNWIRQSPSRGLEWLGRTYYRSKWYKNYSVSVKSRITINPDTSKNQFSLQLNSVTPGDTAVYYCARGGPTAAFDYWGQGTLVTVSS
VL: LSALTQPASVSGSPGQSITISCTGTSSDVGNYNLVSWYQQYSGKAPKLMIYEVSKRPSGVSNRFSGSKSGNTASLTISGLQAEDEADYYCCSYAGSSTLVFGGGTKLTVL

binding result [3]: no binding
binding result [4]: binds
B11: 25G4 (antibody, V domains shown)
VH: EVQLLESGGGLVQPGGSLRLSCAASGFTFSSYAMNWVRQAPGKGLEWVSTISGSGGNTYYADSVKGRFTISRDNSKNTLYLQMNSLRAEDTAVYYCAKKFVLMVYAMLDYWGQGTLVTVSS
VL: DIQMTQSPSSLSASVGDRVTITCRASQSISIYLNWYQQKPGKAPYLLIYAAASLQSGVPSRFSGSGSGTDFTLTISSLQPEDFATYYCQQSYSAPITFGQGTRLEIK

binding result [3]: no binding
binding result [4]: binds
B12: 30A4 (antibody, V domains shown)
VH: QVQLVESGGGVVQPGRSLRLSCAASGFTFSSYGMHWVRQAPGKGLEWVAVIWYDGSDKYYADSVKGRFTISRDNSKNTLYLQMNSLRAEDTAVYYCARETGPLKLYYYGMDVWGQGTTVTVSS
VL: DIVMTQSPLSLSVTPGEPPSISCRSSQSLLHSNGYNFLNWYLQKPGQSPQLLIYLGSHRASGVPDRFSGSGSGTDFTLEISRVEAEDVGVYYCMQVLQTPFTFGPGTKVDIK

The remaining lines, values behind:

B1: mouse PCSK9 (enzyme, UniProt Q80W65 35-694, looked up, not shown: small tags and cut ends)
chain: QDEDGDYEELMLALPSQEDGLADEAAHVATATFRRCSKEAWRLPGTYIVVLMEETQRLQIEQTAHRLQTRAARRGYVIKVLHIFYDLFPGFLVKMSSDLLGLALKLPHVEYIEEDSFVFAQSIPWNLERIIPAWHQTEEDRSPDGSSQVEVYLLDTSIQGAHREIEGRVTITDFNSVPEEDGTRFHRQASKCDSHGTHLAGVVSGRDAGVAKGTSLHSLRVLNCQGKGTVSGTLIGLEFIRKSQLIQPSGPLVVLLPLAGGYSRILNAACRHLARTGVVLVAAAGNFRDDACLYSPASAPEVITVGATNAQDQPVTLGTLGTNFGRCVDLFAPGKDIIGASSDCSTCFMSQSGTSQAAAHVAGIVARMLSREPTLTLAELRQRLIHFSTKDVINMAWFPEDQQVLTPNLVATLPPSTHETGGQLLCRTVWSAHSGPTRTATATARCAPEEELLSCSSFSRSGRRRGDWIEAIGGQQVCKALNAFGGEGVYAVARCCLVPRANCSIHNTPAARAGLETHVHCHQKDHVLTGCSFHWEVEDLSVRRQPALRSRRQPGQCVGHQAASVYASCCHAPGLECKIKEHGISGPSEQVTVACEAGWTLTGCNVLPGASLTLGAYSVDNLCVARVHDTARADRTSGEATVAAAICCRSRPSAKASWVQ
notes: biotinylated, tag not mentioned, in the hybridoma screen; also called mPCSK9-8xHIS; mPCSK9
IC50 (read off the curve) [1]: ~0.6 nM
IC50 (read off the curve) [2]: ~0.4 nM

B2: 19H9 (antibody, V domains shown)
VH: B5 VH with L18V, S28A, V83L
VL: B5 VL with S26N, V60I
notes: also called 19H9.2
binding result [3]: no binding
binding result [4]: binds

B3: 21B12 (antibody, V domains shown)
VH: B5 VH with L18V, S28T, I51V, A53F, V64L, V68G, T74P, V79A, V83L
VL: B5 VL with P45A, F89Y, S91N
notes: lambda light chain; also called ABP 21B12; Ab 21B12
binding result [5]: no binding

B4: 26H5 (antibody, V domains shown)
VH: B5 VH with L18V, S28T, A53F, V83L
VL: B5 VL with N62I
notes: also called 26H5-7.4
koff [6]: 0.00056 s⁻¹
koff [7]: 0.00026 s⁻¹
koff [8]: 0.00047 s⁻¹
off rate ratio pH 5.5/pH 7.4 [9]: 0.5
off rate ratio pH 6.0/pH 7.4 [9]: 0.8
binding result [10]: no binding
binding result [11]: binds

B7: 1A12 (antibody, V domains shown)
VH: EVQLVESGGGLVQPGGSLRLSCAASGLTFSNFWMSWVRQAPGKGLEWVANIKQDGSEKYYVDSVKGRFTISRDNAKNSLYLQMNSLRAEDTAVYSCTRESNWGFAFDIWGQGTMVTVSS
VL: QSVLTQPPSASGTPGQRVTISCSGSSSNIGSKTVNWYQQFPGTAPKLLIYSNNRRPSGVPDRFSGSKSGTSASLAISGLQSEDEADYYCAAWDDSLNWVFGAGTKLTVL
notes: also called 1A12.2
Kd [12]: 1.1 nM
Kd [13]: 0.4 nM
Kd [14]: 1 nM
Kd [15]: 0.56 nM
Kd [16]: 1.3 nM
binding result [10]: no binding
binding result [11]: binds
Kd [17]: 1.4 nM

B8: 9H6 (antibody, V domains shown)
VH: B7 VH with L27F, N31R, F32Y, Q53H, S95Y, T97A, I108V, Q111H
VL: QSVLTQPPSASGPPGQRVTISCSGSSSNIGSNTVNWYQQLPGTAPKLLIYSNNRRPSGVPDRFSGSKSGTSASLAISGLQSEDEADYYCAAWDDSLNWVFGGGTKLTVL
Kd [12]: 1.4 nM
binding result [3]: no binding
binding result [4]: binds
Kd [14]: 1.3 nM
Kd [15]: 0.7 nM

B10: 23B5 (antibody, V domains shown)
VH: B11 VH with G56D
VL: B11 VL with Q3L, I31S, Y45K, L46V, A52S, S76N, A94S
Kd [12]: 0.28 nM
binding result [3]: no binding
binding result [4]: binds
Kd [14]: 0.2 nM
Kd [15]: 0.1 nM

B13: 27B2 (antibody, V domains shown)
VH: QVQLQESGPGLVKPSQTLSLTCTVSGGSISSGGYYWSWIRQHPGKGLEWIGYIYNSGSTYYNPSLKSRVTISVDTSKNQFSLKLSSVTAADTAVYYCAREDTAMVPYFDYWGQGTLVTVSS
VL: QSVLTQPPSVSGAPGQRVTISCTGSSSNIGAHYDVHWYQQVPGTAPKLLIYGNTYRPSGVPDRFSGSKSGTSASLAITGLQAEDEADYYCQSYDNSLSGVVFGGGTKLTVL
notes: also called 27B2.3; 27B2.3-7.4
koff [6]: 0.00038 s⁻¹
koff [7]: 0.00052 s⁻¹
koff [8]: 0.00051 s⁻¹
off rate ratio pH 5.5/pH 7.4 [9]: 1.4
off rate ratio pH 6.0/pH 7.4 [9]: 1.3
